Experimental data from article PMC3549491, “Structural Basis of the Intracellular Sorting of the SNARE VAMP7 by the AP3 Adaptor Complex” (Developmental Cell, 2012).
One block for each binder: values may come before it.

How the values were obtained:
VAMP7 longin domain [1] = biological target: T1, VAMP7 longin domain (UniProt P70280 1-120); assay: ITC
T1 chain: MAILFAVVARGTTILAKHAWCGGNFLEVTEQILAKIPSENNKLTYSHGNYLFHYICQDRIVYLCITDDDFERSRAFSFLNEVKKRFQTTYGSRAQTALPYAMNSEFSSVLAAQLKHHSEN

VAMP7 longin domain [2] = biological target: T2, VAMP7 longin domain (UniProt P70280 1-120); assay: ITC; Microcal Auto-iTC200; VAMP7 longin domain in the cell at 0.15–0.2 mM, GST delta constructs at 0.8–1.2 mM titrated; 50 mM HEPES pH 7.4, 200 mM NaCl, 4 mM ß-mercaptoethanol; conditions: both partners purified
T2 construct: VAMP7 (Ti-VAMP), longin domain; also called VAMP7LD; VAMP longin domain
T2 sequence (looked up): T1 chain

[3] = biological target: VAMP7 longin domain L43S/Y45S (UniProt P70280 1-120, L43S | Y45S); assay: ITC

Kd (VAMP7 longin domain [1]): > 300 µM
Binder: PFYIKSSPSPQKRYQDTPGVEHSPSVQIDLSVPLKVPGLPMSDQYVKLE (domain or fragment) [GST δ-adaptin (680–728) I702S/V704S]

Kd (VAMP7 longin domain [1]): > 300 µM
Binder: PFYIKSSPSPQKRYQDTPGVEHIPVVQIDSSVPSKVPGLPMSDQYVKLE (domain or fragment) [GST δ-adaptin (680–728) L709S/L713S]

Kd (VAMP7 longin domain [2]): 14 µM | Kd [3]: > 300 µM
B1: GST δ-adaptin (680–728) (domain or fragment, UniProt O14617-5 680-728, looked up)
chain: PFYIKSSPSPQKRYQDTPGVEHIPVVQIDLSVPLKVPGLPMSDQYVKLE
notes: source: Rosetta2(DE3)pLysS, purified (glutathione-Sepharose, Superdex 75)
